Data reported in publication PMC3673982 (PLoS ONE, 2013).

Molecular target: the molecule itself
Test: cross-linking; 35 µM protein in 50 mM phosphate pH 7.4, 150 mM NaCl, preincubated at 37°C for 30 min; BS2G d0/d4 at 20-fold molar excess (50- and 100-fold also tested), 1 h on ice, quenched with Tris; read by 4-20% SDS-PAGE with Coomassie stain

B1: Human recombinant αA-G98R crystallin (natural protein, UniProt P02489 1-173, looked up)
chain: MDVTIQHPWFKRTLGPFYPSRLFDQFFGEGLFEYDLLPFLSSTISPYYRQSLFRTVLDSGISEVRSDRDKFVIFLDVKHFSPEDLTVKVQDDFVEIHRKHNERQDDHGYISREFHRRYRLPSNVDQSALSCSLSADGMLTFCGPKIQTGLDATHAERAIPVSREEKPTSAPSS
Question: Does B1 bind?
Answer: binds
